# Data: patent US20220411492A1 (QILU PHARMACEUTICAL, published 2022)
# Positions count from the first letter of the chain named.
# B1: ch-126A11 (antibody, V domains shown)
# VH: QVQLKESGPGLVAPSQSLSITCTVSEFSLTTYGVSWVRQPPGKGLEWLGVIWGDGSTNYHSALISRLSISKDTSKSQVFLKLNSLQTDDTATYYCAKPGLRNAMDYWGQGTSVTVSS
# VL: DIVMTQSPSSLSVSAGEKVTMSCKSSQSLLNSGNQKNYLAWYQQKPGQPPKLLIYGASTRESGVPDRFTGSGSGTDFTLTISSVQAEDLAVYYCQNDLIYPLTFGAGTKLELK
# notes: also called chimeric antibody of clone 126A11
# B2: ch-48H1 (antibody, V domains shown)
# VH: QVQLQQPGAELVKPGTSVKLSCKASGYIFTNYWTHWMKQRPGQGLEWIGMIHPNSGSSNYNEKFKSKATLTVDRSSSTVYMQLRRLTSEDSAVYYCTRIHYGNSMDYWGQGTSVTVSS
# VL: DIVMTQSPSSLTVTAGEKVTMSCKSSQSLFNSGNQKNYLTWYQQKPGQPPKLLIYWASTWESGVPDRFTGSGSGTDFTLTISSVQAEDLAVYYCQNAYSYPFTFGSGTKLEIK
# notes: also called chimeric antibody of clone 48H1
# B3: ch-229C9 (antibody, V domains shown)
# VH: DVQLQESGPDLVKPSQSLSLICTVTGYSITSGYSWHWIRQFPGNKLEWMGYIHYSGGTNYNPSLKSRISFTRDTSKNQFFLQLNSVTTEDTATYYCARLERGNSFAYWGQGTLVTVSA
# VL: B2 VL with S26T, F30L, W60R, V84L, A97D, S99F
# notes: also called chimeric antibody of clone 229C9
# B4: ch-241F7 (antibody, V domains shown)
# VH: EVQLQQSGPELEKPGASVKISCKASGYSFTAYNMNWVRQRNGKSLEWIGNIDPYYGGTNYNQKFKGKATLTVDKSSSTAYMQLKSLTSEDSAVYFCATVYYGNSLIYWGQGTLVTVSA
# VL: B1 VL with S12T, S14T, A40T, G56W, S71T, D97N, L98Y, I99F, K109Q
# notes: also called chimeric antibody of clone 241F7
# B5: ch-239E9 (antibody, V domains shown)
# VH: QVQLQQSGPELVRPGVSVKISCKGSSYTFTDYTMHWVKQSHAKSLEWIGFIGVYYGNTNYNQKFKGKATMTVDKSSSTAYMELARLTSEDSAVYYCARIGRGNAMDYWGQGTSVTVSS
# VL: B2 VL with F30L, W60R, Y93N
# notes: also called chimeric antibody of clone 239E9
# B6: ch-32G8 (antibody, V domains shown)
# VH: EVHLQQSGPVLVKPGASVKMSCKASGYTFTDYHMNWVKQSHGKSLEWIGVINPYNGGIRYNQKFKGKATLTVDKSSSTAYMELNSLTSEDSAVYYCATIYYGNSFAYWGQGTLVTVSA
# VL: B2 VL with F30L, W60R, A97N, S99I, S106G, K113R
# notes: also called chimeric antibody of clone 32G8
# B7: ch-252F11 (antibody, V domains shown)
# VH: EIQLVESGGGLVRPGGSLKLSCAASGFSFKNYVMSWVRQSPERRLEWVAEIRTGGDYTYYVDTVTGRFTISRDNAKNTLYLEMTSLRSEDTATYYCARVGYGNSLDYWGQGTTLTVSS
# VL: B1 VL with S12T, S14T, A40T, G56W, Y93S, D97N, L98Y, I99F, K109E
# notes: also called chimeric antibody of clone 252F11
# B8: ch-299B2 (antibody, V domains shown)
# VH: QVQLKQSGPELVRPGASVKLSCKTSGYIFTNYWIHWVKQRSGQGLEWVVRIYPGTGNTYYNEKFTGKATLTADKSSSTAYMQLSSLKYEDSAVYFCSREGYGKGNSMDYWGQGTSVTVSS
# VL: B2 VL with S22N, F30L, I54F, W60R, Y93H, S99Y, F102Y, S106G, I112M
# notes: also called chimeric antibody of clone 299B2
# B9: ch-37G8 (antibody, V domains shown)
# VH: B6 VH with H3Q, T30S, I48V, V50L, Y60F
# VL: B2 VL with M21L, S22T, S26G, F30L, W60R, S83G, A97D, S99F, F102Y, S106G
# notes: also called chimeric antibody of clone 37G8
# B10: ch-39C8 (antibody, V domains shown)
# VH: QVQLQQSGAGLVKPGASVKISCKASGYAFSSYWMIWVKQRPGKGLEWIGQIYPGDGDTNYNGKFKGKATLTADKSSSTAFMQLSSLTSEDSAVYFCTRIYYGNAFAYWGQGTLVTVSA
# VL: B2 VL with F30L, W60R, A97D
# notes: also called chimeric antibody of clone 39C8
# B11: ch-40G7 (antibody, V domains shown)
# VH: QVQLQQPGTELVKPGASVKLSCKASGYTFTNYWMHWVKQRPGHGLEWIGMIHPNSYSTNYNEKFRSKATLTVDKSSSTAYMQLSSLTSEDSAVYYCTRIYYGNAMDYWGQGTSVTVSS
# VL: B2 VL with K18R, Q43H, S58F, W60R, S82R, A97D
# notes: also called chimeric antibody of clone 40G7
# B12: ch-251H11 (antibody, V domains shown)
# VH: QVQLKQSGAELVRPGASVKLSCKTSGYTFTTFWIHWIKQRSGQGLEWIAKIYPGTGYTYYNEKFKGKATLTADKSSSAAYMQLSSLKSEDSAVYFCAREGYGKGNAVDFWGQGSSVTVSS
# VL: B2 VL with W60R, S82D, A97D, S99T, F102S, S106G, K109N
# notes: also called chimeric antibody of clone 251H11
# B13: ch-43F5 (antibody, V domains shown)
# VH: B2 VH with I28T, N31S, M37V, R74K, V79A, S104A
# VL: B2 VL with S22T, F30L, W60R, V91I, A97D, Y100F
# notes: also called chimeric antibody of clone 43F5
# B14: ch-76D11 (antibody, V domains shown)
# VH: QVQLQQSGAELMKPGASVKLSCKASGYTFTGYWIEWIKQRPGHGLEWIGEILPGSGSIKYNEKFKDKATFTADTSSNTAYMQLSSLTTEDSAIYYCARKGLRGNSFDYWGQGTTLTVSS
# VL: B2 VL with F30L, L52R, W60R, A97D, S99Y
# notes: also called chimeric antibody of clone 76D11
# B15: ch-42D2 (antibody, V domains shown)
# VH: B6 VH with H3Q, H33Q, V50F, Y101F, Y107N
# VL: B2 VL with S25P, F30L, K51R, W60R, A97D, S99I, F102Y, S106G, K109N
# notes: also called chimeric antibody of clone 42D2
# Key:
# [1] = target: T1, human Claudin 18.2 (hCLDN18.2) (human, UniProt P56856-2 1-261); assay: FACS, PDX-hCLDN18.2 gastric cancer tumor tissue-derived cells
# T1 construct: whole, on cells; also called CLDN18A2; claudin 18 splice variant 2
# Excerpt: (§1) FACS was used to detect the binding of anti-CLDN18.2 chimeric antibodies to HEK293 cells stably transfected expressing hCLDN18.2 (HEK293-hCLDN18.2) and gastric cancer tumor tissue-derived cells naturally expressing hCLDN18.2 (PDX-hCLDN18.2).
# [2] = target: T1, human Claudin 18.2 (hCLDN18.2); assay: cell-based or functional assay
# [3] = target: T1, human Claudin 18.2 (hCLDN18.2); assay: FACS, HEK293-hCLDN18.2 cells
# Excerpt: as §1
# [4] = target: T1, human Claudin 18.2 (hCLDN18.2); assay: cell-based or functional assay; remark: listed apart in the source
# [5] = target: murine CLDN18.2 (mCLDN18.2) (murine) (UniProt P56857); assay: FACS, HEK293-mCLDN18.2 cells
Binder,EC50 [1] [nM],Mean maximum fluorescence intensity (Top MFI) [1] [MFI],CDC EC50 [2] [µg/mL],CDC Maximum lysis (%) [2] [%],EC50 [3] [nM],Mean maximum fluorescence intensity (Top MFI) [3] [MFI],ADCC EC50 [4] [µg/mL],ADCC Maximum lysis (%) [4] [%],EC50 [5] [nM],Mean maximum fluorescence intensity (Top MFI) [5] [MFI]
B1,15,17100,0.065,95,2.12,9970,0.01,36.6,0.573,7640
B2,5.59,13600,0.17,94.3,2.92,9480,0.011,44.7,1.76,14800
B3,10.7,15700,0.165,96.1,2.46,9870,0.023,29.1,1.19,12700
B4,4.87,15200,0.099,95,3.02,12200,0.027,36.6,1.16,10500
B5,4.55,14600,0.139,94.8,2.31,9270,0.021,36.7,1.24,12700
B6,5.39,14800,0.108,93.8,2.66,8640,0.019,46.8,0.84,6870
B7,15.8,16500,0.179,95.4,2.2,8380,0.022,31.1,0.948,8980
B8,5.81,16300,0.124,95.5,1.52,10100,0.047,33.5,0.758,13600
B9,7,14400,0.16,92.9,5.05,10400,0.022,31.7,1.71,8930
B10,20.1,17500,0.177,94.8,2.7,7820,0.022,34.5,1.63,10600
B11,7.69,10100,0.38,89.1,2.31,7470,0.018,32.7,1.11,10000
B12,96.2,19900,0.359,97.1,2.72,10800,0.024,38.8,1.01,8590
B13,5.35,7620,0.206,89.8,1.51,5590,0.064,48.5,1.13,6090
B14,12.3,16800,0.108,95.4,2.46,8720,0.021,45.6,0.702,6340
B15,7.42,15700,0.13,94.5,2.42,10400,0.02,39.1,0.764,7400
